Laboratory results reported in patent US11666664B2, “Self assembling molecules for targeted drug delivery” (The General Hospital Corporation, priority 2015, dated 2023).

Experiment: Isoelectric point of expressed clathrin heavy chain preparation
Format: physicochemical
Conditions: recombinant human clathrin isoform 2 heavy chain with 6His tag from E. coli
Excerpt: The preparation yielded a protein with the following characteristics: […]

Q: With “PE1130119-1: Clathrin human isoform 2 heavy chain expressed in E. coli, soluble protein with 6His tag” as the substance, how does the “Isoelectric Point” value read?
A: The value was 5.67.
